For the data set, the target named is Argonaute-2 (hAgo2) (Homo sapiens, UniProt Q9UKV8 Q9UKV8:1-859). The experiment in a line: EMSA; DNA cariMir co-migrates with Ago2-miR complex. As to conditions: tags: expressed in sf9 insect cells, endogenous insect miRs co-purify; label: fluorescein. The procedure: Recombinant hAgo2 (Creative Biomart) was preloaded with synthetic miR guide in cleavage buffer (150 mM NaCl, 5 mM MgCl₂, 2.5% glycerol, 0.05% Tween-20, 10 mM Tris-HCl, pH 7.4) for 10-20 min at room temperature, followed by addition of target cariMir. Reactions were stopped by addition of gel loading buffer and immediately resolved by non-denaturing PAGE using 10% TBE gels (Life Technologies). Gels were stained with SYBR Green I and imaged with a PXi gel imager (Syngene). Gel densitometric analysis was performed using Image J and data were plotted in Prism 6 (GraphPad).
When cariMirs were mixed with recombinant Ago2 pre-loaded with synthetic miRs, cariMirs were cleaved producing the expected 5′ and 3′ cleavage products (see FIG. 14B), consistent with miR-guided Ago2 endonucleolytic action subsequent to specific hybridization of cariMir and miR within Ago2. […] Various components of the method are shown in the lanes of the gel as indicated above the gel. In the rightmost lane on the gel image (labeled “miR+Ago2+cariMir”), all components are added to allow potential Ago-mediated cleavage of the cariMir to occur (see FIG. 14A). The amounts of the various components in the reaction mixture are indicated to the left of the gel. […]

The record followed here is patent publication US20170356903, “OLIGONUCLEOTIDE PROBES AND USES THEREOF” (Caris Science, Inc., published 2017).

Chain of Argonaute-2 (hAgo2) (Q9UKV8 whole entry, one chain of several): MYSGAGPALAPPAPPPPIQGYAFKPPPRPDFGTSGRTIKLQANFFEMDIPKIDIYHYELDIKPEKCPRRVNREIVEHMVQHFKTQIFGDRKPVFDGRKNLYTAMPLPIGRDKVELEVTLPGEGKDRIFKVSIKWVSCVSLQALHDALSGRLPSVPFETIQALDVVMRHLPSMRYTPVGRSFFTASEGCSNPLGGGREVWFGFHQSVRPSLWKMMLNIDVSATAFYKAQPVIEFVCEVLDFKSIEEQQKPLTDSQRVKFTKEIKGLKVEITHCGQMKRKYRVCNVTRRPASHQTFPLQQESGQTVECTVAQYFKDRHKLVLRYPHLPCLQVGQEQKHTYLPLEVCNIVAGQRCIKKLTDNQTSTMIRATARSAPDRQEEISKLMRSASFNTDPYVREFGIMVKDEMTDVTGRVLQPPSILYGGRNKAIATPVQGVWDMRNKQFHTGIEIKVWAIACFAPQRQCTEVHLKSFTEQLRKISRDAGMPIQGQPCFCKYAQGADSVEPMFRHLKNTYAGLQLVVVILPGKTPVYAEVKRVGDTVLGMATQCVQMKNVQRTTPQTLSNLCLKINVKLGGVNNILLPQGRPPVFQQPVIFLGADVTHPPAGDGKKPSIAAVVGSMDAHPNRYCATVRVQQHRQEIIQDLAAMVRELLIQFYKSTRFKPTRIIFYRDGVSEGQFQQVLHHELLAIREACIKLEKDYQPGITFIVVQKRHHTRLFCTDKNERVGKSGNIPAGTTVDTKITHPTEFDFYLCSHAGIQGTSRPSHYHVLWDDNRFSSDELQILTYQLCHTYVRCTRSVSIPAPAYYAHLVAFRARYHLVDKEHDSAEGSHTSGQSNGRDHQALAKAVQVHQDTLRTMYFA

B1: miR guide ; cariMir target (ssRNA ; ssDNA)
RNA: UAGAGGUACGUGCUGAGGCUU
DNA: CTAGCATGACTGCAGTACGTCACTGCAGGCCTCAGCACGTACCTCTATAACCGCCCTGTCTCTTATACACATCTGACGCTGCCGACGA
modifications: 5'-phosphate, internal fluorescein-dT
For B1, the binding result is reported as “binds”.
